Measurements published in patent US7910550B2, “Human kunitz-type inhibitor with enhanced antifibrinolytic activity” (STC.UNM, priority 2004, dated 2011).

Assays:
[1] = tested on: VEGF-induced angiogenesis; assay: VEGF-induced chorioallantoic membrane assay; assay type: in vivo; details: preliminary studies
[2] = tested on: HT-1080 fibrosarcoma xenografts; assay type: in vivo, SCID mice
Method: The relative mRNA abundance in the snap-frozen tumor xenograft samples was assessed by oligonucleotide-based microarray analysis using an Affymetrix […] Human Genome U133 set (Affymetrix, Inc., Santa Clara, Calif.). This microarray consists of two array units of over one million unique oligonucleotide features covering over 39,000 transcript variants that represent 33,000 of the best characterized human genes. Additional information regarding these chips is available on-line at the Affymetrix, Inc. website. Biotinylated cRNA probe preparation, processing, hybridization and normalization were performed as described in the Affymetrix […] Expression Analysis Manual. Florescence images were captured using a gene array scanner (Affymetrix, Inc., Santa Clara, Calif.) and expression analysis was performed using GeneSpring v5.1 software. The wild-type TFPI-2 transfected (WT) tumor ratio of medians was normalized with that obtained from mock-transfected (MT) tumors.

[3] = TFPI-2 expressing tumors over mock-transfected tumors
[4] = human fibrosarcomas secreting wild-type human TFPI-2

B1: TFPI-2: Human tissue factor pathway inhibitor-2, 213 amino acid polypeptide with three tandem Kunitz-type domains (SEQ ID NO:1) (protein, listed as Homo sapiens)
chain: DAAQEPTGNNAEICLLPLDYGPCRALLLRYYYDRYTQSCRQFLYGGCEGNANNFYTWEACDDACWRIEKVPKVCRLQVSVDDQCEGSTEKYFFNLSSMTCEKFFSGGCHRNRIENRFPDEATCMGFCAPKKIPSFCYSPKDEGLCSANVTRYYFNPRYRTCDAFTYTGCGGNDNNFVSREDCKRACAKALKKKKKMPKLRFASRIRKIRKKQF
- anti-angiogenic effect [1]: potent and dose-dependent anti-angiogenic effect
- Fold Change mRNA: Erythropoietin-producing hepatocyte kinase, EphB6 (NM_004445) [2]: −2.38 fold
- Fold Change mRNA: ADAM-TS2 (NM_021599) [2, 3]: −4.62 fold
- Fold Change mRNA: Alpha 1 chain of Type XII Collagen (AA669336) [2, 3]: +7.26 fold
- Fold Change mRNA: Aquaporin 1 (NM_000385) [2, 3]: +2.30 fold
- Fold Change mRNA: Biglycan (BC002416) [2, 3]: −2.29 fold
- Fold Change mRNA: Bone morphogenetic protein 4 (D30751) [2, 3]: +2.79 fold
- Fold Change mRNA: COUP-transcription factor (X16155) [2, 3]: −2.79 fold
- Fold Change mRNA: CUB domain-containing protein 1 (CDCP1) (NM_022842) [2, 3]: −18.70 fold
- Fold Change mRNA: Cell death regulator Aven (NM_020371) [2, 3]: −2.11 fold
- Fold Change mRNA: Chondroitin sulfate proteoglycan 2 (versican) (D32039) [2, 3]: −2.13 fold
- Fold Change mRNA: Collagen, type 1, alpha 1 (NM_000088) [2, 3]: +3.51 fold
- Fold Change mRNA: Cytidine deaminase (NM_001785) [2, 3]: +35.30 fold
- Fold Change mRNA: EEF1A2, Eukaryotic translation elongation factor 1 alpha 2 (NM_001958) [2, 3]: +6.85 fold
- Fold Change mRNA: EGF-TM7-latrophilin-related protein (NM_022159) [2, 3]: −2.92 fold
- Fold Change mRNA: EIF2Ak1, protein kinase, PKR (NM_002759) [2, 3]: +2.51 fold
- Fold Change mRNA: Endothelin receptor type A (AU118882, NM_001957) [2, 3]: −2.90 fold
- Fold Change mRNA: FLT, VEGFR1, Fms-related tyrosine kinase receptor (NM_002019) [2, 3]: −2.24 fold
- Fold Change mRNA: Fibronectin 1 (AJ276395) [2, 3]: −3.80 fold
- Fold Change mRNA: Formin like (FRL) (NM_005892) [2, 3]: −2.14 fold
- Fold Change mRNA: Helicase, Basic leucine zipper transcription factor-1 (NM_001186) [2, 3]: −2.11 fold
- Fold Change mRNA: Hemoglobin, epsilon 1, oxygen transport (NM_005330) [2, 3]: −7.63 fold
- Fold Change mRNA: Interleukin-8 (IL-8, C—X—CL8) (NM_000584) [2, 3]: −6.99 fold
- Fold Change mRNA: Junction plakoglobin (NM_021991) [2, 3]: −2.21 fold
- Fold Change mRNA: LIM domain binding 2 (NM_001290) [2, 3]: −5.20 fold
- Fold Change mRNA: LIM homeobox protein 6 (NM_014368) [2, 3]: +2.91 fold
- Fold Change mRNA: Ligase III, DNA (NM_013975) [2, 3]: +2.04 fold
- Fold Change mRNA: Lymphocyte antigen 75, gp200-MR6 (NM_002349) [2, 3]: +14.32 fold
- Fold Change mRNA: MAGE-A1, Melanoma antigen family A1 (NM_004988) [2, 3]: −2.95 fold
- Fold Change mRNA: Metastasis suppressor gene (NM_014751) [2, 3]: +2.06 fold
- Fold Change mRNA: N-Cadherin (M34064) [2, 3]: −2.13 fold
- Fold Change mRNA: Neuropeptide Y receptor (L01639) [2, 3]: −8.03 fold
- Fold Change mRNA: Nox 4, NADPH oxidase 4 (NM_016931) [2, 3]: −2.46 fold
- Fold Change mRNA: Oligophrenin 1 (NM_002547) [2, 3]: +2.95 fold
- Fold Change mRNA: PBX-2, Pre-B cell leukemia transcription factor-2 (NM_002586) [2, 3]: −2.75 fold
- Fold Change mRNA: Phenylalanine-tRNA synthetase (NM_006567) [2, 3]: +2.11 fold
- Fold Change mRNA: Phorbolin-like protein MDS019 (NM_021822) [2, 3]: +2.80 fold
- Fold Change mRNA: Protein tyrosine phosphatase, receptor type, U (U71075) [2, 3]: −2.48 fold
- Fold Change mRNA: Reversion-inducing-cysteine-rich protein with kazal motif (RECK) (NM_021111) [2, 3]: +2.64 fold
- Fold Change mRNA: S100 calcium-binding protein A4 (NM_002961) [2, 3]: +2.79 fold
- Fold Change mRNA: Tumor necrosis factor, alpha-induced protein 2 (NM_006291) [2, 3]: +2.98 fold
- Fold Change mRNA: Tumor protein D52-like 1 (NM_003287) [2, 3]: +2.10 fold
- Fold Change mRNA: Vascular endothelial growth factor C (U58111) [2, 3]: −2.41 fold
- Fold Change mRNA: Zinc finger protein 22 (KOX 15) (NM_006963, AA744771) [2, 3]: +29.27 fold
- Fold Change mRNA: Zinc finger protein 185 (LIM domain) (NM_006291) [2, 3]: +5.05 fold
- Fold Change mRNA: dermatopontin precursor (AI146848) [2, 3]: +2.87 fold
- Fold Change mRNA: enigma (LIM domain protein) (AW206786) [2, 3]: −2.32 fold
- Fold Change mRNA: fibrillin 1 precursor (AI264196) [2, 3]: −2.48 fold
- Fold Change mRNA: platelet derived growth factor alpha polypeptide (NM_002607) [2, 3]: +2.53 fold
- Fold Change mRNA: protein tyrosine kinase 7 (NM_002821) [2, 3]: +2.33 fold
- Fold Change mRNA: sortilin 1 (SORTI) (BE742268) [2, 3]: −4.21 fold
- Fold Change mRNA: thrombospondin 1 precursor (AI812030) [2, 3]: −3.39 fold
- Fold Change mRNA: voltage-gated potassium channel activity (AF052169) [2, 3]: +2.48 fold
- Fold Change mRNA: Chemokine (C—X—C motif), receptor 4 (fusin) (AF348491) ([2]; TFPI-2 expressing tumors over mock-transfected tumors, first of two values): −4.21 fold
- Fold Change mRNA: Chemokine (C—X—C motif), receptor 4 (fusin) (AJ224869) ([2]; TFPI-2 expressing tumors over mock-transfected tumors, second of two values): −27.40 fold
- IL-8 down regulated [2, 4]: 6.99 fold
- VEGF-C down regulated [2, 4]: 2.41 fold
- VEGF-R1 (FLT1) down regulated [2, 4]: 2.24 fold
